According to IntAct's records for PubMed 26694203:

B1: Mesoderm posterior protein 1 (Homo sapiens), Q9BRJ9 (parent)
chain: MAQPLCPPLSESWMLSAAWGPTRRPPPSDKDCGRSLVSSPDSWGSTPADSPVASPARPGTLRDPRAPSVGRRGARSSRLGSGQRQSASEREKLRMRTLARALHELRRFLPPSVAPAGQSLTKIETLRLAIRYIGHLSAVLGLSEESLQRRCRQRGDAGSPRGCPLCPDDCPAQMQTRTQAEGQGQGRGLGLVSAVRAGASWGSPPACPGARAAPEPRDPPALFAEAACPEGQAMEPSPPSPLLPGDVLALLETWMPLSPLEWLPEEPK

Variants of: B1
Details: with tfe2_human TCF3, P15923
Chain of tfe2_human TCF3, P15923 (P15923 whole entry): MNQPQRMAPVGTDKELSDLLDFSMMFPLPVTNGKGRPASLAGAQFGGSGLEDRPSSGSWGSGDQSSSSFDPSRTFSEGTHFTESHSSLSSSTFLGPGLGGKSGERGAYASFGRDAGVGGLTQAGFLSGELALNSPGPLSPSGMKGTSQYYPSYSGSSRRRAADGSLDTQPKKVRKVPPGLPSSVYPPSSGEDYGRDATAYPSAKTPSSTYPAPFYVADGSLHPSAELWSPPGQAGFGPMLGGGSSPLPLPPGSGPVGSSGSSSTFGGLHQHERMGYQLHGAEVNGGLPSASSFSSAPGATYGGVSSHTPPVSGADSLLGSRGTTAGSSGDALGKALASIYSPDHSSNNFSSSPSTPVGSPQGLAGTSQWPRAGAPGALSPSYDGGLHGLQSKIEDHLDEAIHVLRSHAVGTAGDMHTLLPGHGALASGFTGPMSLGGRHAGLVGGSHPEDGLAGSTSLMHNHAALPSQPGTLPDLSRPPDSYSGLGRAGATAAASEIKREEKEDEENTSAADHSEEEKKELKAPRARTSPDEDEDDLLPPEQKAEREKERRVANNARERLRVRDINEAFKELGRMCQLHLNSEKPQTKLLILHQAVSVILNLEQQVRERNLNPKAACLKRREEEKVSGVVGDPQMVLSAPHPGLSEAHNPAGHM
In the case of MAQPLCPPLSESWMLSAAWGPTRRPPPSDKDCGRSLVSSPDSWGSTPADSPVASPARPGTLRDPRAPSVGRRGARSSRLGSGQRQSASEREKLRMRTLARALHELRRFLPPSVAPAGQSLTKIETLRLAIRYIGHLSAVLGLSEESLQRRCRQRGDAGSPRGCPLCPGDCPAQMQTRTQAEGQGQGRGLGLVSAVRAGASWGSPPACPGARAAPEPRDPPALFAEAACPEGQAMEPSPPSPLLPGDVLALLETWMPLSPLEWLPEEPK [D168G], the “effect of a mutation on the interaction” value is reported as “decreasing interaction strength”.
In the case of MAQPLCPPLSESWMLSAAWGPTRRPPPSDKDCGRSLVSSPDSWGSTPADSPVASPARPGTLRDPRAPSVGRRGARSSRLGSGQRQSASEREKLRMRTLARALHKLRRFLPPSVAPAGQSLTKIETLRLAIRYIGHLSAVLGLSEESLQRRCRQRGDAGSPRGCPLCPDDCPAQMQTRTQAEGQGQGRGLGLVSAVRAGASWGSPPACPGARAAPEPRDPPALFAEAACPEGQAMEPSPPSPLLPGDVLALLETWMPLSPLEWLPEEPK [E104K], the “effect of a mutation on the interaction” value is reported as “decreasing interaction strength”.
In the case of MAQPLCPPLSESWMLSAAWGPTRRPPPSDKDCGRSLVSSPDSWGSTPADSPVASPARPGTLRDPRAPSVGRRGARSSRLGSGQRQSASEREKLRMRTLARALHELRRFLPPSVAPAGQSLTKIETLRLAIRYIGHLSAVLGLSEESLQRRCRQRGDAGSPRGCPLCPDDCPAQMQTRTQAEGQGQGRGLGLVSAVRAGASWGSPPACPGARAAPEPRDPPALFAEAACPEGQAMEPSPPSPLLPGDVLALLETWMPLSPLEWLPEEPN [K268N], the “effect of a mutation on the interaction” value is reported as “with no effect”.
With MAQPLCPPLSESWMLSAAWGPTRRPPPSDKDCGRSLVSSPDSWGSTPADSPVASPARPGTLRDPRAPSVGRRGARSSRLGSGQRQSASEREKLRMRTLARALHELRRFLPPSVAPAGQSPTKIETLRLAIRYIGHLSAVLGLSEESLQRRCRQRGDAGSPRGCPLCPDDCPAQMQTRTQAEGQGQGRGLGLVSAVRAGASWGSPPACPGARAAPEPRDPPALFAEAACPEGQAMEPSPPSPLLPGDVLALLETWMPLSPLEWLPEEPK [L120P] the “effect of a mutation on the interaction” value was “decreasing interaction strength”.
MAQPLCPPLSESWMLSAAWGPTRRPPPSDKDCGRSLVSSPDSWGSTPADSPVASPARPGTLRDPRAPSVDRRGARSSRLGSGQRQSASEREKLRMRTLARALHELRRFLPPSVAPAGQSLTKIETLRLAIRYIGHLSAVLGLSEESLQRRCRQRGDAGSPRGCPLCPDDCPAQMQTRTQAEGQGQGRGLGLVSAVRAGASWGSPPACPGARAAPEPRDPPALFAEAACPEGQAMEPSPPSPLLPGDVLALLETWMPLSPLEWLPEEPK [G70D] was tested, and the “effect of a mutation on the interaction” value was “with no effect”.
